2 molecules from PMC7560827, “Immunodominant proteins P1 and P40/P90 from human pathogen Mycoplasma pneumoniae” (Nature Communications, 2020) can be followed below.

Holding throughout (details): both partners purified
The target in test [1] is T1, P90N polypeptide (Ala446 to the C-end of P40/P90N) (Mycoplasma pneumoniae, UniProt Q50341 446-1003).
T1 construct: source: E. coli B834 (DE3), cleavage product in purified P40/P90N samples
T1 sequence: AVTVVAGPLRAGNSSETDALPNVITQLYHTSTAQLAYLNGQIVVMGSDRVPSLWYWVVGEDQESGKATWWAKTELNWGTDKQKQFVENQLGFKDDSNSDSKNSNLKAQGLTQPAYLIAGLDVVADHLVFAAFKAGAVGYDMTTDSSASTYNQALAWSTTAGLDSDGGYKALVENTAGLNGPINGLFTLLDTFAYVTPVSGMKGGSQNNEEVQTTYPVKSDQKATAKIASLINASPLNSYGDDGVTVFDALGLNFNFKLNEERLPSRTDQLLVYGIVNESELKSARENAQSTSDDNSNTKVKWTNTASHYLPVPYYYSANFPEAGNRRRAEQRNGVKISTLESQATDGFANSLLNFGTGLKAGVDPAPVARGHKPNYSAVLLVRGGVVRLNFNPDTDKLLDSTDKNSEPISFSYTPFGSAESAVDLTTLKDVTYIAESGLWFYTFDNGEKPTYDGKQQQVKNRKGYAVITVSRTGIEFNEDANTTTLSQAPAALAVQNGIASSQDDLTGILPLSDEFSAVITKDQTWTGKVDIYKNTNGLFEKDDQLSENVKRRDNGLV
In words: SEC-MALS.

For test [2], the target named is P40/P90N (short construct of P40/P90, residues Ser23-Val1003) (Mycoplasma pneumoniae, UniProt Q50341 23-1003). In words: SEC.
The target in test [3] is P40/P90 long construct (residues 23-1114) (Mycoplasma pneumoniae, UniProt Q50341 23-1114). In words: SEC. In general terms: SEC sorts molecules by how far they enter the pores of the column.

B1: P40 polypeptide (from the N-end of P40/P90N to Arg445) (domain or fragment)
chain: SLANTYLLQDHNTLTPYTPFTTPLNGGLDVVRAAHLHPSYELVDWKRVGDTKLVALVRSALVRVKFQDTTSSDQSNTNQNALSFDTQESQKALNGSQSGSSDTSGSNSQDFASYVLIFKAAPRATWVFERKIKLALPYVKQESQGSGDQGSNGKGSLYKTLQDLLVEQPVTPYTPNAGLARVNGVAQDTVHFGSGQESSWNSQRSQKGLKNNPGPKAVTGFKLDKGRAYRKLNESWPVYEPLDSTKEGKGKDESSWKNSEKTTAENDAPLVGMVGSGAAGSASSLQGNGSNSSGLKSLLRSAPVSVPPSSTSNQTLSLSNPAPVGPQAVVSQPAGGATAAVSVNRTASDTATFSKYLNTAQALHQMGVIVPGLEKWGGNNGTGVVASRQDATSTNLPHAAGASQTGLGTGSPREPALTATSQR
notes: source: E. coli B834 (DE3), cleavage product in purified P40/P90N samples
On to B1, for which, in test [1], the binding result is on record as “binds”.

B2: P1 extracellular region (residues Thr29-Asp1521) (domain or fragment)
chain: TVVGHFTSTTTTLKRQQFSYTRPDEVALRHTNAINPRLTPWTYRNTSFSSLPLTGENPGAWALVRDNSAKGITAGSGSQQTTYDPTRTEAALTASTTFALRRYDLAGRALYDLDFSKLNPQTPTRDQTGQITFNPFGGFGLSGAAPQQWNEVKNKVPVEVAQDPSNPYRFAVLLVPRSVVYYEQLQRGLGLPQQRTESGQNTSTTGAMFGLKVKNAEADTAKSNEKLQGAEATGSSTTSGSGQSTQRGGSSGDTKVKALKIEVKKKSDSEDNGQLQLEKNDLANAPIKRSEESGQSVQLKADDFGTALSSSGSGGNSNPGSPTPWRPWLATEQIHKDLPKWSASILILYDAPYARNRTAIDRVDHLDPKAMTANYPPSWRTPKWNHHGLWDWKARDVLLQTTGFFNPRRHPEWFDGGQTVADNEKTGFDVDNSENTKQGFQKEADSDKSAPIALPFEAYFANIGNLTWFGQALLVFGGNGHVTKSAHTAPLSIGVFRVRYNATGTSATVTGWPYALLFSGMVNKQTDGLKDLPFNNNRWFEYVPRMAVAGAKFVGRELVLAGTITMGDTATVPRLLYDELESNLNLVAQGQGLLREDLQLFTPYGWANRPDLPIGAWSSSSSSSHNAPYYFHNNPDWQDRPIQNVVDAFIKPWEDKNGKDDAKYIYPYRYSGMWAWQVYNWSNKLTDQPLSADFVNENAYQPNSLFAAILNPELLAALPDKVKYGKENEFAANEYERFNQKLTVAPTQGTNWSHFSPTLSRFSTGFNLVGSVLDQVLDYVPWIGNGYRYGNNHRGVDDITAPQTSAGSSSGISTNTSGSRSFLPTFSNIGVGLKANVQATLGGSQTMITGGSPRRTLDQANLQLWTGAGWRNDKASSGQSDENHTKFTSATGMDQQGQSGTSAGNPDSLKQDNISKSGDSLTTQDGNAIDQQEATNYTNLPPNLTPTADWPNALSFTNKNNAQRAQLFLRGLLGSIPVLVNRSGSDSNKFQATDQKWSYTDLHSDQTKLNLPAYGEVNGLLNPALVETYFGNTRAGGSGSNTTSSPGIGFKIPEQNNDSKATLITPGLAWTPQDVGNLVVSGTTVSFQLGGWLVTFTDFVKPRAGYLGLQLTGLDASDATQRALIWAPRPWAAFRGSWVNRLGRVESVWDLKGVWADQAQSDSQGSTTTATRNALPEHPNALAFQVSVVEASAYKPNTSSGQTQSTNSSPYLHLVKPKKVTQSDKLDDDLKNLLDPNQVRTKLRQSFGTDHSTQPQPQSLKTTTPVFGTSSGNLSSVLSGGGAGGGSSGSGQSGVDLSPVEKVSGWLVGQLPSTSDGNTSSTNNLAPNTNTGNDVVGVGRLSESNAAKMNDDVDGIVRTPLAELLDGEGQTADTGPQSVKFKSPDQIDFNRLFTHPVTDLFDPVTMLVYDQYIPLFIDIPASVNPKMVRLKVLSFDTNEQSLGLRLEFFKPDQDTQPNNNVQVNPNNGDFLPLLTASSQGPQTLFSPFNQWPD
notes: source: E. coli B834 (DE3), purified (HisTrap, Superdex 200)
With B2, the binding result in test [2] and in test [3] was “binds” each time.
